Data reported in a protein production outcome set (Wang et al. 2014).

experiment: label from the status in PepcDB records

Row | Sequence | protein production
1 | MTTPPARTAKQRIQDTLNRLELDVDAWVSTAGADGGAPYLVPLSYLWDGETFLVATPAASPTGRNLSETGRVRLGIGPTRDLVLVEGTALPLEPAGLPDGVGDTFAEKTGFDPRRLTTSYLYFRISPRRVQAWREANELSGRELMRDGEWLVTD | not failed
2 | MTTPSRRRLMRDFKKLQEDPPAGVSGAPTEDNILTWEAIIFGPQETPFEDGTFKLSLEFTEEYPNKPPTVKFISKMFHPNVYADGSICLDILQNRWSPTYDVAAILTSIQSLLDEPNPNSPANSLAAQLYQENRREYEKRVQQIVEQSWLNFGENEGDAVLKDDVEIEEIAAPGANDADDDRMDEGASGSNA | not failed
3 | MTTPTPIRMLILEDSEDDLLLLLREVRRGGIDPAYERADSAAGLRRALDAGEWDVIVSDYNMPQFGALPALDIVKERGLDVPFIIVSGKIGEDLAVAAMKAGAHDYLMKGNLSRLVPAIERELREADERRRRRQAEEAMHAQFNQISTIFDSLNALVYVVDMNSYELLYLNKFGAQLFGEAWEGRTCHDVLHGGRSTPCDFCTNDKLIMDGKALPPYIWEYQNSISSRWYQCIDKAIRWTDGRMVRMEIAIDITERKEMERMKDEMISAVSHEMHTPLTAMMGFTEFLLENEVDRDLQKNYLKTIYRETERLNELITNFLQLQRLKASMVKFRITPVAVGLLVADVVSLYAAASKKHRIVVECPPDLPPVRGNEEQLYQAISNLVSNAIKYSPDGGDVTIGASAAADIVTLWVRDQGIGISPEFQEKIFERFFRVDNSDRRKVGGAGLGLTLVREIVATHGGRSWVESSPGKGSTFFISLPAMT | failed
4 | MTTPVNGSVIPLISLRESRMPSLTDGAIRRALKQVEQTQKPVTLADGEGRGIGRLILFVRPMPTRVIAYWLVQQWRAGARSRKKIGAYPSMSLNQARNIFDRDFADAIQKGRSIKALGDTRAGTLGDLFDAYIAHLKSSGKKSWKEAEKGLNKVADTLGRHRPARDIEPHEIVDIIRPIYGRGTRSMADHVRGYLRAAFSWGIKSEHDYRHASPRRFGLTKNPAAGIPSEPYVPGNRWLDEEEFLRLYRWLECPDTPVHPPYTRAVRLLMLTGQRVEEIARLHIAQWDAKERIIDWSTTKNGKPHAIPVPDLAAELLESIKPNNYGWFFPSAFDPSKPVAHNTLYSFMWRQRERGVIPVVTNRDLRRTWKTLAGKAGLSKEIRDRLQNHTLQDVSSKAYDRWNYMPEKRAAMKQWNSFVRSVLTPDRLTSAA | failed
5 | MTTQKLLSDCQFCSVVSKNNGEDPIGTANTSDNWLVLEAALPWTEEHLHSDRILSQIHDLFHELENRHIPVIPIAIAPDREYSVPGYVRALHYKRPTKSFAEFEKQEFLIPESQIGQFTSGFLEYPNDLDQFQTYQQPKNHIREIMVCTHGNVDVACSRFGYPIYQNLRQNYAAKSAGQLRVWRCSHIGGHQFAPTLFDLPTGQFWGHIEPEILDVLVWRNSPVKQLRQFYRGWSGMTKFEQIVEREIWMQHGWEWLQYQKSGQVLAKDTTNDEWNADWAEVRIDFTSPDNSIQGSYLARVEACSQVMTVFNSGKEQPLETVKQYRVSQLTQQLINI | failed
6 | MTTQMPIASPRTEFYERAFGGFHDQAVAEVRKETYGEDLGQNDWSTVDEMRQFSQWLELSPQSHLLDVCSGSGGPALFLARNSGCRVTGVDLHPDALQTGRQLAQALELHDRSQFVECDVRQRMPFPDGTFDALWCIDSVIHIPDRLALLREWCRLLKPGGRFLYTDPTLVTGMVSKEEILLRGTPGYFLYTPIGLNERLIEQAGLRLDMQADLTHSITELSERWHAAREKRCAVLTATEGEEAFARMQSFLTATHRVSVEGRLSRWVFVGVRP | failed
7 | MTTQTIDSAPHATWFVGASYGGTDDQMPRFLAEGIWENGYDDKLLEVVRSMRPGERIAIKSSYTRKHGLPFDSRGRAVSVMGIKAVGTITENLNDGKRVKVDWAKVEPVREWYFYTHRATIWRVLPGEWMNDALIAFAFDGKPQDVDRFRNEPFWRERYGTTSPEKQRFEWTDFYEAVAEKLLAHADDRTPLIEGIHEIASRVPGLTYLQDKFPDGTSGPLRDICPFTTMGTFNRSMTDANRKTLAGELAKLLGVTVPVPPSFEGIPVLNNQRSWFFAYADKRGAGDIDALWKVFVAASKMVDGDQLDTRDAFIRAYDEATQVWGVAWNLSTGLYWAHPWEFLTLDSQSRHYINKRLGLNVAISGQQGPCDGRAYLKLLDDLRSRFGEDGYPVHSFPDLSLASWMYKDPVDEPVPAGDIGTNAGAEQETEGEVREAFQVAAPIVPYSVEDILKDGCFLERAEIDRLLDRLRTKKNLILQGPPGTGKTWLAKRLAFALMGQKDDSKVRAVQFHPNLSYEDFVRGWRPTGEGKLSLADGVFMEAIKAASKDPSSKFVVVIEEINRGNPAQIFGELLTLLEAGKRTPNEALELCYPDADGKRRPVHIPENLYVVGTMNIADRSLALVDLALRRRFAFVGLEPRLGQVWRDWVVKECAVDPGLVADIERRIAELNDQIAADARLGKQFRIGHSYVTPAHRLEAGDTKKWFLQVVETEIGPLLDEYWFDAPDEAQKAIARLTQGWLEHHHHHH | not failed
8 | MTTSIGGLFFNLVALSLLSAIGLGVVHGITYSKWMPLLGNNATFGIHKFSIQVNVKECIKGCMLAILTMVPFIIVIGIMIAPVFQQLMMMTMLGGSDAGSEFVLQYYPQIMASYFLYFVAILVFASYLYVTLRNLFLNNLTLANGTIRFHSSVTAIGMLLRMLAVLMGSSITCGLAYPWLKMWMVSWIANNTHVQGDLDSLELTNDDKPQDSGSLMWISRGIMPYVPFI | failed
9 | MTTTGHVHFYIGTYTNPPSTSTSTGIARLSLNTETGELTRLDDVVVQRNPSYLTTTEHGLYTFSEMDRNEGTELAFFRGSESVSLPINGDYPCHLDIKEPLLAVANYGSGNVSVFQLDRDGKPLGLLADLYVDGCGPNLERQTSPHAHQVTFLKHSHQLVVVDLGSDSVLIYDYDAQPPDFSLSQVIHLPAGSGPRHVVFNQQESTAYVVCELSETLIVLVKHQDKWLISNQTELLEGEENQQAAAAIRLSQDETFLYVSCRAQNKISMFDVSGDTPKRRAAIHCEGVFPRDFVLSHDQKWLLVANQHSNNVVSFRRNPQTGEITPTGYDCEIGSPVCIVEQPLLEHHHHHH | failed
10 | MTTYLIIGANRVGQLVARQLATESATVRLLHDGKETLPSDLATQVTELTGDLTQEATYTAALQDQPIIFSALTGMDVDLAFEALFDAQYHQRLTFQRFVMLSTAGVDQEVTGDLAYPGITDVAEYLKQQRYAAKLVDEAEFPYTILRPVTLADSPRRDPQIIKEGAAVPAGTVSRETVAQVAVSLLQAGGADYQSLAICLEHHHHHH | failed
11 | MTTYTFDQVEEAIEQLYPDFTINTIEISGEGNDCIAYEINGNFIFKFPKHSRASINLLNEVTVLKTIHNELSLPIPEVVFTGMPSEMCQMSFAGFTKIKGVPLTPLLLKNLPKQSQDQAAKDLARFLSELHSINISGFKSNLVLDFREKINEDNKKIKKLLSRELKGHQMKKVDDFYRDILDNEIYFKYYPCLIHNDFSSDHILFDTEKNTICGIIDFGDAAISDPDNDFISLMEDDEEYGMEFVSKILNHYKHKDIPTVLEKYMMKEKYWSFEKIIYGKEYGYMDWYEEGLNEIRSIKIK | not failed
12 | MTVAGLWLFAMALGASALGGMLGMASGIFIVPLLVLWGIDVHAAIAASIVSVIACSCGSAAAFLQSGLTHVRLAVVLETATTLGALTSVFLVGAVPVAALYALFAVVLVVSAWQMLARRRDPARASGAPACRWAGALRLHGRYRDPAAGRHRRYRVQRLPLGMSLMYGAGVLSALLGIGSGVLKIPAMDSALRLPLKVSSATSNFMIGVTAAASAAVYFARGEIDPAVAGPVALGSVAGSVLGARILMHVSGERLRLLFVAVLALLAVQMLLMALGVQWPGGGR | failed
13 | MTVEYTASDLATYQNEVNEQIAKNKAHLESLTHPGSKVTFPIDQDISATPQNPNLKVFFFDIDNCLYKSSTRIHDLMQQSILRFFQTHLKLSPEDAHVLNNSYYKEYGLAIRGLVMFHKVNALEYNRLVDDSLPLQDILKPDIPLRNMLLRLRQSGKIDKLWLFTNAYKNHAIRCLRLLGIADLFDGLTYCDYSRTDTLVCKPHVKAFEKAMKESGLARYENAYFIDDSGKNIETGIKLGMKTCIHLVENEVNEILGQTPEGAIVISDILELPHVVSDLF | not failed
14 | MTVIDDRDMMGAESSELSEAGARDYFELLKPRVMSLVVFTAFAGLVLAPGEINPILGLIAILCIAVGAGASGALNMWYDADIDAVMTRTAKRPIPSGRIAPREALAFGLTLSAFSVVILGLAVNWFSAGLLAFTIFFYAVVYTMWLKRSTPQNIVIGGAAGAFPPMLGWACVTGGVSLDSVILFLIIFLWTPAHFWALALFKMRDYGAVGIPMMPNVAGERSTKNQMIVYAVLTAAAAVAPFFTGLASAGYGIFAAVLSAIFVYCSFDVRRMPEGDEKMLPAKKMFAYSVLYLFAIFSGLLADHFAPALKAVISGVL | failed
15 | MTVIIAGERSGAGKTTITLAMLAYLARQKLRVQSFKVGPDYIDPMFHSQITGRPCRNLDPFLTSEAYVQRCFHYHSQGTPYSLIEGVMGLFDGVPYQGLTDYSSTAHIARLLNLPIVFVMDCQRLSGSVAAIVQGYRHWQPGVNLVGVILNRVGGDRHLELLKIALEPLRIPILGVFFRQQDLTLPDRHLGLVPCGELPQIQQYFDQLAHVAAQQLDWPKLLPLLETPRNLPSPMSLFDVPQKSPQARLAIAQDQAFNFYYADNLDLLTHCGFELIPFSPLEDTELPPAIDGVYLGGGFPELFAEQLSQNQALKDQLKTLIHQGLPTYGECGGLMYLSQSLTNFEGQIFPMLEMLPTAVTMGGKLSLGYRQAQVVNSHSWLWQTESLRGHEFHRSQMTKLPNQALYRQRGLLAIDQNTTDGWCVGSVQASYLHLHWGSQISTVEKFRAACLAFQKKLSYLGKHPPFKSVPLRNTGGDAHGRE | failed
16 | MTVKTEAAKGTLTYSRMRGMVAILIAFMKQRRMGLNDFIQKIANNSYACKHPEVQSILKISQPQEPELMNANPSPPPSPSQQINLGPSSNPHAKPSDFHFLKVIGKGSFGKVLLARHKAEEVFYAVKVLQKKAILKKKEEKHIMSERNVLLKNVKHPFLVGLHFSFQTADKLYFVLDYINGGELFYHLQRERCFLEPRARFYAAEIASALGYLHSLNIVYRDLKPENILLDSQGHIVLTDFGLCKENIEHNSTTSTFCGTPEYLAPEVLHKQPYDRTVDWWCLGAVLYEMLYGLPPFYSRNTAEMYDNILNKPLQLKPNITNSARHLLEGLLQKDRTKRLGAKDDFMEIKSHVFFSLINWDDLINKKITPPFNPNVSGPNDLRHFDPEFTEEPVPNSIGKSPDSVLVTASVKEAAEAFLGFSYAPPTDSFL | failed
17 | MTVNAKTSPSAGNTWRDLPAAQQPEYPDTEALRAVIADLESYPPLVFAGECDQLRARMAAVAKGEAFLLQGGDCAEAFDAVSADHIRNKLKTLLQMGAVLTYAASVPVVKVGRIAGQYSKPRSKPTETRDGVTLPTYRGDSVNGFDFTEAARIPDPERLKRMYHASASTLNLVRAFTTGGYADLRQVHAWNQDFVKSSPSGQRYEQLAREIDNALNFMRACGTDPAEFQTVEFFSSHEALLLDYESALTRVDSRTGQLYDVSGHMVWIGERTRQLDHAHIEFASRIRNPIGIKLGPSTTAEEALQYIERLDPEREPGRLTFIVRMGADKIRDKLPELVEKVTASGATVAWITDPMHGNTYEAASGHKTRRFDDVLDEVKGFFEVHKSLGTHPGGIHVELTGDDVTECVGGGDEIFVDDLHQRYETACDPRLNRSQSLDLAFLVAEMYRDQ | not failed
18 | MTVNMTKGQAISLQKNDGGTLTAVRMGLGWQAAPRRGLFGSRTREIDLDASAVLFADKQPVDVVFFRHLVSDDGSVRHTGDNLVGGVGQGGDDEAILVDLQRLPVHIDQIVFTVNSFTGQTFQEVQNAFCRLVDETNGEELARYTLAGGGQYTAQIMAKVHRAGAGWQMTALGTPSNGRTFQDLMPAILPHL | failed
19 | MTVPWHLVALAFAVCLVVAAPGFLRVYYFVSLCYAGAIAAQSLVFALLFSTTISGWVTLQLLLLLIYGVRLGAFLAVRERNPAYAAELARAERRTAELKLWHQIAIWLGVSLLFTLLFLPALLTLSLQAQGAWPVSTPLGVMIMAVGLWVESLADWQKYRYKAEHPSHYCDTGLYRLVRCPNYLGEMVFWFGVWFSGLSAYGSGGAWTLTLLGMLYILALMTAAAAGLERKQDERYGDRPDYQEYVRSVPILFPWVPLFTLRKLLIRFR | failed
